The source of these data is paper PMC314469, “Protein Interaction Networks by Proteome Peptide Scanning” (PLoS Biology, 2004).

Sho1 SH3 (SHO1_YEAST), P40073, sequence (P40073 295-366): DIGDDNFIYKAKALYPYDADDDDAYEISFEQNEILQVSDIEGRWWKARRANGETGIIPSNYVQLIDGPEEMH

The first experiment deals with T1, Boi2 SH3 (BOI2_YEAST), P39969.
T1 chain: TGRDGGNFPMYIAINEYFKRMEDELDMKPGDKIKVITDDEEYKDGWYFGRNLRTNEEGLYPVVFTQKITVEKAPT
The experiment in a line: SPOT array.
Turning to PSHYRNIPYNPATF [YBR194W 90-103], the normalised SPOT signal, Boehringer light units (BLU); mean over the file's lines of this peptide worked out at 8.5.
Still for that read-out and setting: as for PTANKYAPVSPTVQ [YPL085W 797-810], the figure is 27.4; as for PYMYKYLPRFPNLK [YPL137C 764-777], 991.
The same measure, in the same setting: the same measure for PRSKKKKPAPPTLL [YMR039C 165-178]: 17.2; for PSRSKSNPILPIMR [YLR319C 684-697]: 25.1; for PSSHKRKPVIPWDA [YNL295W 201-214]: 40.8.
On the same count and under the same terms, as for PQTMRQAPKRPDAD [YNL298W 493-506], the figure is 743.
For the molecule PVRSRVLPATPRQI [YKL086W 103-116], the normalised SPOT signal, Boehringer light units (BLU); mean over the file's lines of this peptide was found to be 35.9.
The same measure, in the same setting: the same measure for PQQNRPLPQLPNRN [YOR181W 307-320]: 4.1; for PSAMKLVPSIPPAT [YBR154C 118-131]: 21.6; for PVPVRMQPQPPQPM [YBR108W 383-396]: 85.6.
In turn, PPSIRKQPIAPDVL [YJR092W 754-767] registered a normalised SPOT signal, Boehringer light units (BLU); mean over the file's lines of this peptide of 13.5.
Still for that read-out and setting: the same measure for PTVQKFSPHPPTTL [YER144C 362-375]: 14.5.
The same measure, in the same setting: as for PSSKKNKPNPPPGS [YJL056C 176-189], the figure is 0.8.

For a further experiment, the target named is T2, Rvs167 SH3 (RV167_YEAST), P39743.
T2 chain: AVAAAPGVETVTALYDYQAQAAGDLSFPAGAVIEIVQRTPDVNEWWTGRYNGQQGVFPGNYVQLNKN
The experiment in a line: SPOT array.
Take PSHYRNIPYNPATF [YBR194W 90-103]: the normalised SPOT signal, Boehringer light units (BLU); mean over the file's lines of this peptide came out at 27.8.
Still for that read-out and setting: as for PTANKYAPVSPTVQ [YPL085W 797-810], the figure is 93.3.
PYMYKYLPRFPNLK [YPL137C 764-777]: the normalised SPOT signal, Boehringer light units (BLU); mean over the file's lines of this peptide came to 920.
On the same count and under the same terms, the same measure for PRSKKKKPAPPTLL [YMR039C 165-178]: 49.7; for PSRSKSNPILPIMR [YLR319C 684-697]: 246.
The same measure, in the same setting: as for PSSHKRKPVIPWDA [YNL295W 201-214], the figure is 52; as for PQTMRQAPKRPDAD [YNL298W 493-506], 3750.
Still for that read-out and setting: the same measure for PVRSRVLPATPRQI [YKL086W 103-116]: 10400; for PQQNRPLPQLPNRN [YOR181W 307-320]: 53800.
Take PSAMKLVPSIPPAT [YBR154C 118-131]: the normalised SPOT signal, Boehringer light units (BLU); mean over the file's lines of this peptide amounted to 45.4.
On the same count and under the same terms, as for PVPVRMQPQPPQPM [YBR108W 383-396], the figure is 70.5; as for PPSIRKQPIAPDVL [YJR092W 754-767], 49.5; as for PTVQKFSPHPPTTL [YER144C 362-375], 20.8.
On the same count and under the same terms, the same measure for PSSKKNKPNPPPGS [YJL056C 176-189]: 40.5.

A further experiment concerns the target T3, Yhr016c SH3 (YSC84_YEAST), P32793.
T3 chain: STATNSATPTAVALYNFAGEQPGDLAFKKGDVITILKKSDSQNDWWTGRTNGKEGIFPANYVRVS
The experiment in a line: SPOT array.
Molecule PSHYRNIPYNPATF [YBR194W 90-103] came in with a normalised SPOT signal, Boehringer light units (BLU); mean over the file's lines of this peptide of 11.3.
The same measure, in the same setting: the same measure for PTANKYAPVSPTVQ [YPL085W 797-810]: 11.2.
In turn, PYMYKYLPRFPNLK [YPL137C 764-777] registered a normalised SPOT signal, Boehringer light units (BLU); mean over the file's lines of this peptide of 432.
On the same count and under the same terms, the same measure for PRSKKKKPAPPTLL [YMR039C 165-178]: 37.5; for PSRSKSNPILPIMR [YLR319C 684-697]: 70.1; for PSSHKRKPVIPWDA [YNL295W 201-214]: 8.5.
For the molecule PQTMRQAPKRPDAD [YNL298W 493-506], the normalised SPOT signal, Boehringer light units (BLU); mean over the file's lines of this peptide worked out at 6220.
The same measure, in the same setting: as for PVRSRVLPATPRQI [YKL086W 103-116], the figure is 1380; as for PQQNRPLPQLPNRN [YOR181W 307-320], 50100.
Take PSAMKLVPSIPPAT [YBR154C 118-131]: the normalised SPOT signal, Boehringer light units (BLU); mean over the file's lines of this peptide is 63.3.
The same measure, in the same setting: the same measure for PVPVRMQPQPPQPM [YBR108W 383-396]: 145.
Same read-out and setting: as for PPSIRKQPIAPDVL [YJR092W 754-767], the figure is 29.6; as for PTVQKFSPHPPTTL [YER144C 362-375], 16.
In turn, PSSKKNKPNPPPGS [YJL056C 176-189] showed a normalised SPOT signal, Boehringer light units (BLU); mean over the file's lines of this peptide of 28.

Another experiment concerns the target T4, Boi1 SH3 (BOI1_YEAST), P38041.
T4 chain: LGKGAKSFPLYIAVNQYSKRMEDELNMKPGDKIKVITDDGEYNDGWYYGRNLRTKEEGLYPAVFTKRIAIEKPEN
The experiment in a line: SPOT array.
Molecule PSHYRNIPYNPATF [YBR194W 90-103] returned a normalised SPOT signal, Boehringer light units (BLU); mean over the file's lines of this peptide of 188.
With PTANKYAPVSPTVQ [YPL085W 797-810], the normalised SPOT signal, Boehringer light units (BLU); mean over the file's lines of this peptide was 168.
PYMYKYLPRFPNLK [YPL137C 764-777] showed a normalised SPOT signal, Boehringer light units (BLU); mean over the file's lines of this peptide of 177.
Same read-out and setting: the same measure for PRSKKKKPAPPTLL [YMR039C 165-178]: 84.3; for PSRSKSNPILPIMR [YLR319C 684-697]: 196.
Still for that read-out and setting: as for PSSHKRKPVIPWDA [YNL295W 201-214], the figure is 93.5.
Same read-out and setting: as for PQTMRQAPKRPDAD [YNL298W 493-506], the figure is 350; as for PVRSRVLPATPRQI [YKL086W 103-116], 2030; as for PQQNRPLPQLPNRN [YOR181W 307-320], 3740.
Turning to PSAMKLVPSIPPAT [YBR154C 118-131], the normalised SPOT signal, Boehringer light units (BLU); mean over the file's lines of this peptide was 89.4.
On the same count and under the same terms, the same measure for PVPVRMQPQPPQPM [YBR108W 383-396]: 93.8.
On the same count and under the same terms, as for PPSIRKQPIAPDVL [YJR092W 754-767], the figure is 220; as for PTVQKFSPHPPTTL [YER144C 362-375], 58.
The same measure, in the same setting: the same measure for PSSKKNKPNPPPGS [YJL056C 176-189]: 571.

In a further experiment the target is T5, Myo5 SH3 (MYO5_YEAST), Q04439.
T5 chain: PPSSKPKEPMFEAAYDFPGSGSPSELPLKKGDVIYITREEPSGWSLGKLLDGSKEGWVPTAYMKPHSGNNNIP
The experiment in a line: SPOT array.
With PSHYRNIPYNPATF [YBR194W 90-103], the normalised SPOT signal, Boehringer light units (BLU); mean over the file's lines of this peptide was found to be 175.
Same read-out and setting: as for PTANKYAPVSPTVQ [YPL085W 797-810], the figure is 191.
Same read-out and setting: the same measure for PYMYKYLPRFPNLK [YPL137C 764-777]: 382; for PRSKKKKPAPPTLL [YMR039C 165-178]: 413; for PSRSKSNPILPIMR [YLR319C 684-697]: 523.
For the molecule PSSHKRKPVIPWDA [YNL295W 201-214], the normalised SPOT signal, Boehringer light units (BLU); mean over the file's lines of this peptide was 289.
On the same count and under the same terms, the same measure for PQTMRQAPKRPDAD [YNL298W 493-506]: 3260; for PVRSRVLPATPRQI [YKL086W 103-116]: 1470; for PQQNRPLPQLPNRN [YOR181W 307-320]: 186.
The same measure, in the same setting: the same measure for PSAMKLVPSIPPAT [YBR154C 118-131]: 561; for PVPVRMQPQPPQPM [YBR108W 383-396]: 188; for PPSIRKQPIAPDVL [YJR092W 754-767]: 150.
On the same count and under the same terms, the same measure for PTVQKFSPHPPTTL [YER144C 362-375]: 213; for PSSKKNKPNPPPGS [YJL056C 176-189]: 107.

In a further experiment the target is T6, Yfr024 SH3 (LSB3_YEAST), P43603.
T6 chain: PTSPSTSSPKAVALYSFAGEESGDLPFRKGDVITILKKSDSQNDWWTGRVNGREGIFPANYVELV
The experiment in a line: SPOT array.
Take PSHYRNIPYNPATF [YBR194W 90-103]: the normalised SPOT signal, Boehringer light units (BLU); mean over the file's lines of this peptide turned out to be 100.
Consider PTANKYAPVSPTVQ [YPL085W 797-810], for which the normalised SPOT signal, Boehringer light units (BLU); mean over the file's lines of this peptide worked out at 0.
In turn, PYMYKYLPRFPNLK [YPL137C 764-777] yielded a normalised SPOT signal, Boehringer light units (BLU); mean over the file's lines of this peptide of 1150.
PRSKKKKPAPPTLL [YMR039C 165-178]: the normalised SPOT signal, Boehringer light units (BLU); mean over the file's lines of this peptide turned out to be 157.
Molecule PSRSKSNPILPIMR [YLR319C 684-697] registered a normalised SPOT signal, Boehringer light units (BLU); mean over the file's lines of this peptide of 1260.
The same measure, in the same setting: as for PSSHKRKPVIPWDA [YNL295W 201-214], the figure is 65.5; as for PQTMRQAPKRPDAD [YNL298W 493-506], 15700.
The same measure, in the same setting: as for PVRSRVLPATPRQI [YKL086W 103-116], the figure is 15900.
Still for that read-out and setting: the same measure for PQQNRPLPQLPNRN [YOR181W 307-320]: 36200; for PSAMKLVPSIPPAT [YBR154C 118-131]: 251.
In turn, PVPVRMQPQPPQPM [YBR108W 383-396] yielded a normalised SPOT signal, Boehringer light units (BLU); mean over the file's lines of this peptide of 1650.
Still for that read-out and setting: as for PPSIRKQPIAPDVL [YJR092W 754-767], the figure is 450.
On the same count and under the same terms, the same measure for PTVQKFSPHPPTTL [YER144C 362-375]: 10.2; for PSSKKNKPNPPPGS [YJL056C 176-189]: 49.2.

Another experiment addresses Sho1 SH3 (SHO1_YEAST), P40073. The experiment in a line: SPOT array.
PSHYRNIPYNPATF [YBR194W 90-103] came in with a normalised SPOT signal, Boehringer light units (BLU); mean over the file's lines of this peptide of 65.2.
On the same count and under the same terms, as for PTANKYAPVSPTVQ [YPL085W 797-810], the figure is 37.8; as for PYMYKYLPRFPNLK [YPL137C 764-777], 1590.
Same read-out and setting: as for PRSKKKKPAPPTLL [YMR039C 165-178], the figure is 57.4.
On the same count and under the same terms, as for PSRSKSNPILPIMR [YLR319C 684-697], the figure is 98.4; as for PSSHKRKPVIPWDA [YNL295W 201-214], 79.1.
Take PQTMRQAPKRPDAD [YNL298W 493-506]: the normalised SPOT signal, Boehringer light units (BLU); mean over the file's lines of this peptide is 121.
On the same count and under the same terms, the same measure for PVRSRVLPATPRQI [YKL086W 103-116]: 28200; for PQQNRPLPQLPNRN [YOR181W 307-320]: 31600.
Same read-out and setting: the same measure for PSAMKLVPSIPPAT [YBR154C 118-131]: 42.6; for PVPVRMQPQPPQPM [YBR108W 383-396]: 71.7.
Same read-out and setting: as for PPSIRKQPIAPDVL [YJR092W 754-767], the figure is 25.8.
In turn, PTVQKFSPHPPTTL [YER144C 362-375] came in with a normalised SPOT signal, Boehringer light units (BLU); mean over the file's lines of this peptide of 44.4.
Still for that read-out and setting: as for PSSKKNKPNPPPGS [YJL056C 176-189], the figure is 72.1.
